{"source": "paper PMC5234717", "about": "(Journal of Lipid Research, 2016)", "key": {"CCCCCCCCCCCCC/C=C/C=O": {"test_system": "CCCCCCCCCCCCC/C=C/C=O", "test": "purified protein", "conditions": "pH 7.5; 37.0 °C"}, "S1PL2025 [1]": {"target": "T1, S1PL2025 (Burkholderia pseudomallei, UniProt Q63IP4)", "T1 construct": "gene BPSS2025", "T1 sequence (Q63IP4 35-507 limits assumed)": "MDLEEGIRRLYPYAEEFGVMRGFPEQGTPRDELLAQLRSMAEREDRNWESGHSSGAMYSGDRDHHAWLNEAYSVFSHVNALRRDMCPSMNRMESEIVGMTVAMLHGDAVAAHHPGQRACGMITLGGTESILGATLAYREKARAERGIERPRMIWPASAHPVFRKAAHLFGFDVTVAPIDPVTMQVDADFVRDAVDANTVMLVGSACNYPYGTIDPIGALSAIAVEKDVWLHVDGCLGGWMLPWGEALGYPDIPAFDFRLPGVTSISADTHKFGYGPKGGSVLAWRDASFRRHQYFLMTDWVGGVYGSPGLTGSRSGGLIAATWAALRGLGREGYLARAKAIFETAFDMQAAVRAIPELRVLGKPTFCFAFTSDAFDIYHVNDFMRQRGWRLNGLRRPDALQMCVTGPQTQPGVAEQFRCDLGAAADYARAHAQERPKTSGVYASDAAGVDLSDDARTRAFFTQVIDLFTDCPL"}, "S1PL2025 [2]": {"target": "T1, S1PL2025", "remark": "listed apart in the source"}}}
{"compound": "FALDH (Homo sapiens)", "values": [{"measurement": "Km", "setting": "CCCCCCCCCCCCC/C=C/C=O", "result": "19.4 ± 3.2", "unit": "µM"}, {"measurement": "Vmax", "setting": "CCCCCCCCCCCCC/C=C/C=O", "result": 0.315, "unit": "µmol/min/mg"}, {"measurement": "kcat/Km", "setting": "CCCCCCCCCCCCC/C=C/C=O", "result": 11300, "unit": "M⁻¹ s⁻¹"}]}
{"compound": "Cc1ncc(COP(=O)(O)O)c(C=O)c1O", "note": "[PLP]", "values": [{"measurement": "UV-vis spectroscopy", "setting": "S1PL2025 [1]", "result": "A similar PLP binding spectrum was observed with S1PL2025"}]}
{"compound": "NCCOP(=O)(O)O", "note": "[PE]", "values": [{"measurement": "UV-vis spectroscopy of PLP", "setting": "S1PL2025 [2]", "result": "UV-vis analysis of the binding of S1P and PE to the S1PL2025 enzyme"}]}
